Key:
HLA-A*03:01 [1] = test: IEDB peptide-MHC binding, purified MHC/direct/fluorescence; filed as Kd, often an IC50 or EC50 that approximates it; ≥ and ≤ were set here for values at or beyond the usual limits of such assays
HLA-A*68:02 = test: as above
HLA-A*29:02 [2] = test: as above
HLA-A*23:01 = test: as above
HLA-A*02:19 [3] = test: as above
HLA-A*02:03 [4] = test: as above
HLA-A*02:12 [5] = test: as above
HLA-A*02:11 [6] = test: as above
HLA-A*02:16 = test: as above
HLA-A*02:01 [7] = test: IEDB peptide-MHC binding, purified MHC/competitive/fluorescence; filed as Kd, often an IC50 or EC50 that approximates it; ≥ and ≤ were set here for values at or beyond the usual limits of such assays
HLA-B*15:17 [8] = test: as above
HLA-B*27:03 [9] = test: as above
HLA-B*51:01 [10] = test: as above
HLA-B*46:01 [11] = test: as above
HLA-A*26:01 [12] = test: as above
HLA-B*57:01 [13] = test: as above
HLA-B*39:01 [14] = test: as above
HLA-A*69:01 [15] = test: as above; settings: source organism: Orthohantavirus delgaditoense
HLA-A*24:03 [16] = test: as above; settings: source organism: Orthohantavirus delgaditoense
HLA-B*18:01 [17] = test: as above
HLA-A*03:01 [18] = test: as above; settings: source organism: Campylobacter jejuni subsp. jejuni NCTC 11168 = ATCC 700819
HLA-A*29:02 [19] = test: as above; settings: source organism: Campylobacter jejuni subsp. jejuni NCTC 11168 = ATCC 700819
HLA-B*15:01 [20] = test: as above; settings: source organism: Campylobacter jejuni subsp. jejuni NCTC 11168 = ATCC 700819
HLA-A*02:19 [21] = test: as above; settings: source organism: Campylobacter jejuni subsp. jejuni NCTC 11168 = ATCC 700819
HLA-A*02:03 [22] = test: as above
HLA-A*02:12 [23] = test: as above; settings: source organism: Campylobacter jejuni subsp. jejuni NCTC 11168 = ATCC 700819
HLA-A*02:11 [24] = test: as above
HLA-A*02:06 = test: as above; settings: source organism: Human immunodeficiency virus 1
HLA-A*02:01 [25] = test: IEDB peptide-MHC binding, purified MHC/direct/fluorescence; filed as Kd, often an IC50 or EC50 that approximates it; ≥ and ≤ were set here for values at or beyond the usual limits of such assays; settings: source organism: Giardia lamblia ATCC 50803
HLA-B*15:17 [26] = test: as above; settings: source organism: Giardia lamblia ATCC 50803
HLA-B*27:03 [27] = test: as above; settings: source organism: Giardia lamblia ATCC 50803
HLA-B*51:01 [28] = test: as above; settings: source organism: Giardia lamblia ATCC 50803
HLA-B*15:01 [29] = test: as above; settings: source organism: Giardia lamblia ATCC 50803
HLA-B*46:01 [30] = test: as above; settings: source organism: Giardia lamblia ATCC 50803
HLA-A*26:01 [31] = test: as above; settings: source organism: Giardia lamblia ATCC 50803
HLA-B*57:01 [32] = test: as above; settings: source organism: Giardia lamblia ATCC 50803
HLA-B*39:01 [33] = test: as above; settings: source organism: Giardia lamblia ATCC 50803
HLA-A*69:01 [34] = test: as above; settings: source organism: Giardia lamblia ATCC 50803
HLA-A*24:03 [35] = test: as above; settings: source organism: Giardia lamblia ATCC 50803
HLA-B*18:01 [36] = test: as above; settings: source organism: Giardia lamblia ATCC 50803
[37] = source organism: Rio Mearim virus
[38] = source organism: Orthohantavirus delgaditoense
[39] = source organism: Campylobacter jejuni subsp. jejuni NCTC 11168 = ATCC 700819
[40] = source organism: Human immunodeficiency virus 1
[41] = source organism: Giardia lamblia ATCC 50803
[42] = source organism: Toxoplasma gondii

Sequence: DWMERIEDF
- Kd (HLA-A*03:01 [1]; [37]): ≥ 20 µM
- Kd (HLA-A*68:02; [37]): ≥ 20 µM
- Kd (HLA-A*29:02 [2]; [37]): ≥ 20 µM
- Kd (HLA-A*23:01; [37]): ≥ 20 µM
- Kd (HLA-A*02:19 [3]; [37]): ≥ 20 µM
- Kd (HLA-A*02:03 [4]; [37]): ≥ 20 µM
- Kd (HLA-A*02:12 [5]; [37]): ≥ 20 µM
- Kd (HLA-A*02:11 [6]; [37]): ≥ 20 µM
- Kd (HLA-A*02:16; [37]): ≥ 20 µM
- Kd (HLA-A*02:01 [7]; [38]): ≥ 20 µM
- Kd (HLA-B*15:17 [8]; [38]): ≥ 20 µM
- Kd (HLA-B*27:03 [9]; [38]): ≥ 20 µM
- Kd (HLA-B*51:01 [10]; [38]): ≥ 20 µM
- Kd (HLA-B*46:01 [11]; [38]): ≥ 20 µM
- Kd (HLA-A*26:01 [12]; [38]): ≥ 20 µM
- Kd (HLA-B*57:01 [13]; [38]): ≥ 20 µM
- Kd (HLA-B*39:01 [14]; [38]): ≥ 20 µM
- Kd (HLA-A*69:01 [15]): ≥ 20 µM
- Kd (HLA-A*24:03 [16]): ≥ 20 µM
- Kd (HLA-B*18:01 [17]; [38]): ≥ 20 µM

Sequence: FTFERSKIK
- Kd (HLA-A*03:01 [18]): 0.2 µM
- Kd (HLA-A*02:01 [7]; [39]): ≥ 20 µM
- Kd (HLA-B*15:17 [8]; [39]): ≥ 20 µM
- Kd (HLA-B*27:03 [9]; [39]): ≥ 20 µM
- Kd (HLA-B*51:01 [10]; [39]): ≥ 20 µM
- Kd (HLA-A*29:02 [19]): ≥ 20 µM
- Kd (HLA-B*15:01 [20]): ≥ 20 µM
- Kd (HLA-B*46:01 [11]; [39]): ≥ 20 µM
- Kd (HLA-A*26:01 [12]; [39]): ≥ 20 µM
- Kd (HLA-A*02:19 [21]): ≥ 20 µM
- Kd (HLA-A*02:03 [22]; [39]): ≥ 20 µM
- Kd (HLA-B*57:01 [13]; [39]): ≥ 20 µM
- Kd (HLA-B*39:01 [14]; [39]): ≥ 20 µM
- Kd (HLA-A*02:12 [23]): ≥ 20 µM
- Kd (HLA-A*02:11 [24]; [39]): ≥ 20 µM
- Kd (HLA-B*18:01 [17]; [39]): ≥ 20 µM

Sequence: LNTVATLY
- Kd (HLA-A*02:01 [7]; [40]): 0.0559 µM
- Kd (HLA-B*15:17 [8]; [40]): 2.75 µM
- Kd (HLA-A*02:03 [22]; [40]): 0.291 µM
- Kd (HLA-B*39:01 [14]; [40]): ≥ 20 µM
- Kd (HLA-A*02:06): 0.0564 µM

Sequence: MHYGYNRAN
- Kd (HLA-A*03:01 [1]; [41]): ≥ 20 µM
- Kd (HLA-A*02:01 [25]): ≥ 20 µM
- Kd (HLA-B*15:17 [26]): ≥ 20 µM
- Kd (HLA-B*27:03 [27]): ≥ 20 µM
- Kd (HLA-A*68:02; [41]): ≥ 20 µM
- Kd (HLA-B*51:01 [28]): ≥ 20 µM
- Kd (HLA-A*29:02 [2]; [41]): ≥ 20 µM
- Kd (HLA-B*15:01 [29]): ≥ 20 µM
- Kd (HLA-B*46:01 [30]): ≥ 20 µM
- Kd (HLA-A*26:01 [31]): ≥ 20 µM
- Kd (HLA-A*23:01; [41]): ≥ 20 µM
- Kd (HLA-A*02:19 [3]; [41]): ≥ 20 µM
- Kd (HLA-A*02:03 [4]; [41]): ≥ 20 µM
- Kd (HLA-B*57:01 [32]): ≥ 20 µM
- Kd (HLA-B*39:01 [33]): ≥ 20 µM
- Kd (HLA-A*69:01 [34]): ≥ 20 µM
- Kd (HLA-A*02:12 [5]; [41]): ≥ 20 µM
- Kd (HLA-A*02:11 [6]; [41]): ≥ 20 µM
- Kd (HLA-A*24:03 [35]): ≥ 20 µM
- Kd (HLA-A*02:16; [41]): ≥ 20 µM
- Kd (HLA-B*18:01 [36]): ≥ 20 µM

Sequence: SVVEENTMA
- Kd (HLA-A*02:01 [7]; [42]): ≥ 20 µM
- Kd (HLA-A*02:11 [24]; [42]): 0.183 µM
